Biological target: Dll (DllΔN) (Drosophila melanogaster, UniProt P20009 124-327)
Assay: EMSA; 1:1 mix of dialysis buffer (20 mM HEPES pH 8.0, 200 mM NaCl, 10% glycerol, 2 mM MgCl2, 0.05% Tween 20) and DNA mix; final about 150 mM NaCl, 10 mM Tris pH 7.5
Details: tags: His6 (kept); label: Cy5 on the primer strand

Dll (DllΔN), sequence (P20009 124-327, stated change not applied): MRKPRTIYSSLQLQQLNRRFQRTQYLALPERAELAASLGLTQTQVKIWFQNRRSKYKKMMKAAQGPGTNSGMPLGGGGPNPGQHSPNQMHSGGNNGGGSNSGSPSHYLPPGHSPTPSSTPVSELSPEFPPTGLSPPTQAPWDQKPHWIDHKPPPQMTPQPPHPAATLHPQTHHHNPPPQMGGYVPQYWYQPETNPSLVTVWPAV

Binder | Kd
probe 1 (dsDNA) DNA 1: GTTCAGAGTTCTACAGTCCGACCTGGTTTAATTGGTCCAGGACTCGGACCTGGACTAGG DNA 2: CCTAGTCCAGGTCCGAGTCCTGGACCAATTAAACCAGGTCGGACTGTAGAACTCTGAAC | 5.2 nM
probe 2 (dsDNA) DNA 1: GTTCAGAGTTCTACAGTCCGACCTGGTTTGATTGGTCCAGGACTCGGACCTGGACTAGG DNA 2: CCTAGTCCAGGTCCGAGTCCTGGACCAATCAAACCAGGTCGGACTGTAGAACTCTGAAC | 92.7 nM
probe 4 (dsDNA) DNA 1: GTTCAGAGTTCTACAGTCCGACCTGGTTTAATGGGTCCAGGACTCGGACCTGGACTAGG DNA 2: CCTAGTCCAGGTCCGAGTCCTGGACCCATTAAACCAGGTCGGACTGTAGAACTCTGAAC | 40.8 nM
probe 3 (dsDNA) DNA 1: GTTCAGAGTTCTACAGTCCGACCTGGTTTATTTGGTCCAGGACTCGGACCTGGACTAGG DNA 2: CCTAGTCCAGGTCCGAGTCCTGGACCAAATAAACCAGGTCGGACTGTAGAACTCTGAAC | ~2640 nM
